One substance from article PMC6600642 can be followed below.

Assay [1] addresses microtubules (polymerized from unlabeled tubulin, Taxol-stabilised).
The target is the same in assay [2]. This is another data set of the same source.

Chain of microtubules (polymerized from unlabeled tubulin, Taxol-stabilised) (chain, as listed by the source, chain 1 of 2): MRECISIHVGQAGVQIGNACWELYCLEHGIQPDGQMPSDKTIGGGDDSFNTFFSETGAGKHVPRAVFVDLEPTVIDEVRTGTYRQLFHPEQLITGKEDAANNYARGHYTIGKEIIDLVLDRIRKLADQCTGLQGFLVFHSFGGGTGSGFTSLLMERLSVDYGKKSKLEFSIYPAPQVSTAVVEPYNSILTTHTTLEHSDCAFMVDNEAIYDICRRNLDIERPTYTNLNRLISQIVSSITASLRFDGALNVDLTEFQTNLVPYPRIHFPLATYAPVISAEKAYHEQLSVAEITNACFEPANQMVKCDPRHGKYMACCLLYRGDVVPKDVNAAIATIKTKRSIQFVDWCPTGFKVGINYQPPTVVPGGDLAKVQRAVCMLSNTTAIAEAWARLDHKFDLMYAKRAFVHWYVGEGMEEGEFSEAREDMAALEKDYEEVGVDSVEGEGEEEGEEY
Chain of microtubules (polymerized from unlabeled tubulin, Taxol-stabilised) (chain, as listed by the source, chain 2 of 2): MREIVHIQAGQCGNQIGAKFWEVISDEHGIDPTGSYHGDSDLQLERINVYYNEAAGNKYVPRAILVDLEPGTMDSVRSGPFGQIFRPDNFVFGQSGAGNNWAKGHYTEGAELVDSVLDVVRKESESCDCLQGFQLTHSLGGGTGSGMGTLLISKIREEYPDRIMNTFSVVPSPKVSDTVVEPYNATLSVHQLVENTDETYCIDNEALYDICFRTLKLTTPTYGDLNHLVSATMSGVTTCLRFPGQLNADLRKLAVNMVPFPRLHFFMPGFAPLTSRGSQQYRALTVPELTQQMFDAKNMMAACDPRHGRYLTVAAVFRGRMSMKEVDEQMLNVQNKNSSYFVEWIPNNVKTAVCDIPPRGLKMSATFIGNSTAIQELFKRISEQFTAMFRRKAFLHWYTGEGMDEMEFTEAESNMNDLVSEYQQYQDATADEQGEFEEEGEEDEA

“Saccharomyces cerevisiae cytoplasmic dynein (Dyn1) 1219-4093, monomeric construct, wild-type, P36022 1219-4092” had a microtubule-stimulated ATPase activity of monomeric dynein (second series, beside mutant 14): [MT] K M in assay [1] of 0.42 µM. Further, the microtubule-stimulated ATPase activity of monomeric dynein, 0–5 μM microtubules: K M for tubulin dimer in assay [2] stood at 0.5 µM.
